Data published in US20140087995A1 (published 2014).
Blank lines part the entries; values can stand above or below the binder they belong to. Numbered stars: 1 amine (or outer) side, 2 acyl side, 3 side chain; on linkers, the order of the positions; unused ones are H or OH. Bridge positions count the residues as written; N and C are the ends. Side chains are listed from the residue outwards. Ends that are not written are not given here. * marks the point of attachment. C20 diacid = O=C(O)CCCCCCCCCCCCCCCCCCC(=O)*; γGlu = O=C(O)[C@H](CCC(=O)[*:2])N[*:1]; AEEA = NCCOCCOCC(=O)O

Columns and labels:
rat calcitonin receptor [1] = target: T1, rat calcitonin receptor (rat, UniProt P32214 25-516); experiment: ratio IC50 rat calcitonin receptor / IC50 rat amylin receptor
T1 construct: whole, on cells; Cell membranes of transiently transfected BHK tk'ts 13 cells (Assay VIII); also called rCTR; rCT
T1 sequence (looked up): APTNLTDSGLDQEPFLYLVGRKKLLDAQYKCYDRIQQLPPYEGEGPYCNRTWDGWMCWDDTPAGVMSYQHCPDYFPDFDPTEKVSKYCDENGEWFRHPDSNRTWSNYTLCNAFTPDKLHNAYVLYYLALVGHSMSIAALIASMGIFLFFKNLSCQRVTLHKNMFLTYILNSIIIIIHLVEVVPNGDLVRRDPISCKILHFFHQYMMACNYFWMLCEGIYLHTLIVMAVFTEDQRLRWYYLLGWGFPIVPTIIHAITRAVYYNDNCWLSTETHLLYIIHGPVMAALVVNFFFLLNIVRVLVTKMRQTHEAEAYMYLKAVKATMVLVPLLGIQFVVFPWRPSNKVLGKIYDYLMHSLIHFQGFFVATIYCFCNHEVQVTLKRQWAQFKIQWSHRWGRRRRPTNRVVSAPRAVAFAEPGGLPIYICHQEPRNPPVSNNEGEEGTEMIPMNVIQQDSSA

[2] = target: T2, rat amylin receptor (rat calcitonin receptor + rat RAMP 3) (rat, UniProt P32214 25-516; Q9JJ73 23-147); experiment: SPA competition vs 125I-rat amylin, membranes with rat CTR + rat RAMP3 (Assay VI)
T2 construct: whole, on cells; Cell membranes of transiently transfected BHK tk'ts 13 cells (Assay VI); also called rAmylin-R; rat amylin 3(a) receptor
T2 sequence (looked up) 1: T1 sequence (looked up)
T2 sequence (looked up) 2: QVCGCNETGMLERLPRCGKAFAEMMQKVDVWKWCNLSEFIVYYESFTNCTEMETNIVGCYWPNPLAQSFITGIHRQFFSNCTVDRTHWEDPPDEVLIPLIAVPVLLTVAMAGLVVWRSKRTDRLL

rat calcitonin receptor [3] = target: T1, rat calcitonin receptor; experiment: SPA competition vs 125I-calcitonin, membranes with rat CTR (Assay VIII)

Ratio rCT/rAmylin binding (rat calcitonin receptor [1]): 179
IC50 [2]: 0.049 nM
IC50 (rat calcitonin receptor [3]): 8.79 nM
B1: N^ε1-[2-[2-[2-[[(4S)-4-carboxy-4-(19-carboxynonadecanoylamino)butanoyl]amino]ethoxy]ethoxy]acetyl]-[Arg17,Pro21,Pro27,Pro29,Pro31]-h-amylin (peptide)
peptide: K([AEEA-γGlu-C20 diacid])CNTATCATQRLANFLRHSSPNFGAIPSPTPVGSNTY-NH2
modifications: disulfide 2-7; N-terminus assumed
SMILES: CC[C@H](C)[C@H](NC(=O)[C@H](C)NC(=O)CNC(=O)[C@H](Cc1ccccc1)NC(=O)[C@H](CC(N)=O)NC(=O)[C@@H]1CCCN1C(=O)[C@H](CO)NC(=O)[C@H](CO)NC(=O)[C@H](Cc1c[nH]cn1)NC(=O)[C@H](CCCNC(=N)N)NC(=O)[C@H](CC(C)C)NC(=O)[C@H](Cc1ccccc1)NC(=O)[C@H](CC(N)=O)NC(=O)[C@H](C)NC(=O)[C@H](CC(C)C)NC(=O)[C@H](CCCNC(=N)N)NC(=O)[C@H](CCC(N)=O)NC(=O)[C@@H](NC(=O)[C@H](C)NC(=O)[C@@H]1CSSC[C@H](NC(=O)[C@@H](N)CCCCNC(=O)COCCOCCNC(=O)CC[C@H](NC(=O)CCCCCCCCCCCCCCCCCCC(=O)O)C(=O)O)C(=O)N[C@@H](CC(N)=O)C(=O)N[C@@H]([C@@H](C)O)C(=O)N[C@@H](C)C(=O)N[C@@H]([C@@H](C)O)C(=O)N1)[C@@H](C)O)C(=O)N1CCC[C@H]1C(=O)N[C@@H](CO)C(=O)N1CCC[C@H]1C(=O)N[C@H](C(=O)N1CCC[C@H]1C(=O)N[C@H](C(=O)NCC(=O)N[C@@H](CO)C(=O)N[C@@H](CC(N)=O)C(=O)N[C@H](C(=O)N[C@@H](Cc1ccc(O)cc1)C(N)=O)[C@@H](C)O)C(C)C)[C@@H](C)O
notes: Acylated analogue of human amylin; also called compound 54

Ratio rCT/rAmylin binding (rat calcitonin receptor [1]): 76.6
IC50 [2]: 0.135 nM
IC50 (rat calcitonin receptor [3]): 10.3 nM
B2: N^ε1-[2-[2-[2-[[(4S)-4-carboxy-4-(19-carboxynonadecanoylamino)butanoyl]amino]ethoxy]ethoxy]acetyl]-[Arg17,Pro21,Pro27,Pro34,His35]-h-amylin (peptide)
peptide: K([AEEA-γGlu-C20 diacid])CNTATCATQRLANFLRHSSPNFGAIPSSTNVGPHTY-NH2
modifications: disulfide 2-7; N-terminus assumed
SMILES: CC[C@H](C)[C@H](NC(=O)[C@H](C)NC(=O)CNC(=O)[C@H](Cc1ccccc1)NC(=O)[C@H](CC(N)=O)NC(=O)[C@@H]1CCCN1C(=O)[C@H](CO)NC(=O)[C@H](CO)NC(=O)[C@H](Cc1c[nH]cn1)NC(=O)[C@H](CCCNC(=N)N)NC(=O)[C@H](CC(C)C)NC(=O)[C@H](Cc1ccccc1)NC(=O)[C@H](CC(N)=O)NC(=O)[C@H](C)NC(=O)[C@H](CC(C)C)NC(=O)[C@H](CCCNC(=N)N)NC(=O)[C@H](CCC(N)=O)NC(=O)[C@@H](NC(=O)[C@H](C)NC(=O)[C@@H]1CSSC[C@H](NC(=O)[C@@H](N)CCCCNC(=O)COCCOCCNC(=O)CC[C@H](NC(=O)CCCCCCCCCCCCCCCCCCC(=O)O)C(=O)O)C(=O)N[C@@H](CC(N)=O)C(=O)N[C@@H]([C@@H](C)O)C(=O)N[C@@H](C)C(=O)N[C@@H]([C@@H](C)O)C(=O)N1)[C@@H](C)O)C(=O)N1CCC[C@H]1C(=O)N[C@@H](CO)C(=O)N[C@@H](CO)C(=O)N[C@H](C(=O)N[C@@H](CC(N)=O)C(=O)N[C@H](C(=O)NCC(=O)N1CCC[C@H]1C(=O)N[C@@H](Cc1c[nH]cn1)C(=O)N[C@H](C(=O)N[C@@H](Cc1ccc(O)cc1)C(N)=O)[C@@H](C)O)C(C)C)[C@@H](C)O
notes: Acylated analogue of human amylin; also called compound 58

Ratio rCT/rAmylin binding (rat calcitonin receptor [1]): 135
IC50 [2]: 0.181 nM
IC50 (rat calcitonin receptor [3]): 24.4 nM
B3: N^ε1-[2-[2-[2-[[(4S)-4-carboxy-4-(19-carboxynonadecanoylamino)butanoyl]amino]ethoxy]ethoxy]acetyl]-[Arg17,Pro21,Pro27,Pro31,His35]-h-amylin (peptide)
peptide: K([AEEA-γGlu-C20 diacid])CNTATCATQRLANFLRHSSPNFGAIPSSTPVGSHTY-NH2
modifications: disulfide 2-7; N-terminus assumed
SMILES: CC[C@H](C)[C@H](NC(=O)[C@H](C)NC(=O)CNC(=O)[C@H](Cc1ccccc1)NC(=O)[C@H](CC(N)=O)NC(=O)[C@@H]1CCCN1C(=O)[C@H](CO)NC(=O)[C@H](CO)NC(=O)[C@H](Cc1c[nH]cn1)NC(=O)[C@H](CCCNC(=N)N)NC(=O)[C@H](CC(C)C)NC(=O)[C@H](Cc1ccccc1)NC(=O)[C@H](CC(N)=O)NC(=O)[C@H](C)NC(=O)[C@H](CC(C)C)NC(=O)[C@H](CCCNC(=N)N)NC(=O)[C@H](CCC(N)=O)NC(=O)[C@@H](NC(=O)[C@H](C)NC(=O)[C@@H]1CSSC[C@H](NC(=O)[C@@H](N)CCCCNC(=O)COCCOCCNC(=O)CC[C@H](NC(=O)CCCCCCCCCCCCCCCCCCC(=O)O)C(=O)O)C(=O)N[C@@H](CC(N)=O)C(=O)N[C@@H]([C@@H](C)O)C(=O)N[C@@H](C)C(=O)N[C@@H]([C@@H](C)O)C(=O)N1)[C@@H](C)O)C(=O)N1CCC[C@H]1C(=O)N[C@@H](CO)C(=O)N[C@@H](CO)C(=O)N[C@H](C(=O)N1CCC[C@H]1C(=O)N[C@H](C(=O)NCC(=O)N[C@@H](CO)C(=O)N[C@@H](Cc1c[nH]cn1)C(=O)N[C@H](C(=O)N[C@@H](Cc1ccc(O)cc1)C(N)=O)[C@@H](C)O)C(C)C)[C@@H](C)O
notes: Acylated analogue of human amylin; also called compound 57

Ratio rCT/rAmylin binding (rat calcitonin receptor [1]): 39.7
IC50 [2]: 0.842 nM
IC50 (rat calcitonin receptor [3]): 33.4 nM
B4: N^ε1-[2-[2-[2-[[(4S)-4-carboxy-4-(19-carboxynonadecanoylamino)butanoyl]amino]ethoxy]ethoxy]acetyl]-[His14,Arg17,Pro21,Pro27,Pro31]-h-amylin (peptide)
peptide: K([AEEA-γGlu-C20 diacid])CNTATCATQRLAHFLRHSSPNFGAIPSSTPVGSNTY-NH2
modifications: disulfide 2-7; N-terminus assumed
SMILES: CC[C@H](C)[C@H](NC(=O)[C@H](C)NC(=O)CNC(=O)[C@H](Cc1ccccc1)NC(=O)[C@H](CC(N)=O)NC(=O)[C@@H]1CCCN1C(=O)[C@H](CO)NC(=O)[C@H](CO)NC(=O)[C@H](Cc1c[nH]cn1)NC(=O)[C@H](CCCNC(=N)N)NC(=O)[C@H](CC(C)C)NC(=O)[C@H](Cc1ccccc1)NC(=O)[C@H](Cc1c[nH]cn1)NC(=O)[C@H](C)NC(=O)[C@H](CC(C)C)NC(=O)[C@H](CCCNC(=N)N)NC(=O)[C@H](CCC(N)=O)NC(=O)[C@@H](NC(=O)[C@H](C)NC(=O)[C@@H]1CSSC[C@H](NC(=O)[C@@H](N)CCCCNC(=O)COCCOCCNC(=O)CC[C@H](NC(=O)CCCCCCCCCCCCCCCCCCC(=O)O)C(=O)O)C(=O)N[C@@H](CC(N)=O)C(=O)N[C@@H]([C@@H](C)O)C(=O)N[C@@H](C)C(=O)N[C@@H]([C@@H](C)O)C(=O)N1)[C@@H](C)O)C(=O)N1CCC[C@H]1C(=O)N[C@@H](CO)C(=O)N[C@@H](CO)C(=O)N[C@H](C(=O)N1CCC[C@H]1C(=O)N[C@H](C(=O)NCC(=O)N[C@@H](CO)C(=O)N[C@@H](CC(N)=O)C(=O)N[C@H](C(=O)N[C@@H](Cc1ccc(O)cc1)C(N)=O)[C@@H](C)O)C(C)C)[C@@H](C)O
notes: Acylated analogue of human amylin; also called compound 61

Ratio rCT/rAmylin binding (rat calcitonin receptor [1]): 81.7
IC50 [2]: 0.069 nM
IC50 (rat calcitonin receptor [3]): 5.63 nM
B5: N^ε1-[2-[2-[2-[[(4S)-4-carboxy-4-(19-carboxynonadecanoylamino)butanoyl]amino]ethoxy]ethoxy]acetyl]-[Arg17,Pro21,Pro27,Pro34]-h-amylin (peptide)
peptide: K([AEEA-γGlu-C20 diacid])CNTATCATQRLANFLRHSSPNFGAIPSSTNVGPNTY-NH2
modifications: disulfide 2-7; N-terminus assumed
SMILES: CC[C@H](C)[C@H](NC(=O)[C@H](C)NC(=O)CNC(=O)[C@H](Cc1ccccc1)NC(=O)[C@H](CC(N)=O)NC(=O)[C@@H]1CCCN1C(=O)[C@H](CO)NC(=O)[C@H](CO)NC(=O)[C@H](Cc1c[nH]cn1)NC(=O)[C@H](CCCNC(=N)N)NC(=O)[C@H](CC(C)C)NC(=O)[C@H](Cc1ccccc1)NC(=O)[C@H](CC(N)=O)NC(=O)[C@H](C)NC(=O)[C@H](CC(C)C)NC(=O)[C@H](CCCNC(=N)N)NC(=O)[C@H](CCC(N)=O)NC(=O)[C@@H](NC(=O)[C@H](C)NC(=O)[C@@H]1CSSC[C@H](NC(=O)[C@@H](N)CCCCNC(=O)COCCOCCNC(=O)CC[C@H](NC(=O)CCCCCCCCCCCCCCCCCCC(=O)O)C(=O)O)C(=O)N[C@@H](CC(N)=O)C(=O)N[C@@H]([C@@H](C)O)C(=O)N[C@@H](C)C(=O)N[C@@H]([C@@H](C)O)C(=O)N1)[C@@H](C)O)C(=O)N1CCC[C@H]1C(=O)N[C@@H](CO)C(=O)N[C@@H](CO)C(=O)N[C@H](C(=O)N[C@@H](CC(N)=O)C(=O)N[C@H](C(=O)NCC(=O)N1CCC[C@H]1C(=O)N[C@@H](CC(N)=O)C(=O)N[C@H](C(=O)N[C@@H](Cc1ccc(O)cc1)C(N)=O)[C@@H](C)O)C(C)C)[C@@H](C)O
notes: Acylated analogue of human amylin; also called compound 50

Ratio rCT/rAmylin binding (rat calcitonin receptor [1]): 131
IC50 [2]: 0.04 nM
IC50 (rat calcitonin receptor [3]): 5.26 nM
B6: N^ε1-[2-[2-[2-[[(4S)-4-carboxy-4-(19-carboxynonadecanoylamino)butanoyl]amino]ethoxy]ethoxy]acetyl]-[Arg17,Pro21,Pro27,Pro29,Pro34]-h-amylin (peptide)
peptide: K([AEEA-γGlu-C20 diacid])CNTATCATQRLANFLRHSSPNFGAIPSPTNVGPNTY-NH2
modifications: disulfide 2-7; N-terminus assumed
SMILES: CC[C@H](C)[C@H](NC(=O)[C@H](C)NC(=O)CNC(=O)[C@H](Cc1ccccc1)NC(=O)[C@H](CC(N)=O)NC(=O)[C@@H]1CCCN1C(=O)[C@H](CO)NC(=O)[C@H](CO)NC(=O)[C@H](Cc1c[nH]cn1)NC(=O)[C@H](CCCNC(=N)N)NC(=O)[C@H](CC(C)C)NC(=O)[C@H](Cc1ccccc1)NC(=O)[C@H](CC(N)=O)NC(=O)[C@H](C)NC(=O)[C@H](CC(C)C)NC(=O)[C@H](CCCNC(=N)N)NC(=O)[C@H](CCC(N)=O)NC(=O)[C@@H](NC(=O)[C@H](C)NC(=O)[C@@H]1CSSC[C@H](NC(=O)[C@@H](N)CCCCNC(=O)COCCOCCNC(=O)CC[C@H](NC(=O)CCCCCCCCCCCCCCCCCCC(=O)O)C(=O)O)C(=O)N[C@@H](CC(N)=O)C(=O)N[C@@H]([C@@H](C)O)C(=O)N[C@@H](C)C(=O)N[C@@H]([C@@H](C)O)C(=O)N1)[C@@H](C)O)C(=O)N1CCC[C@H]1C(=O)N[C@@H](CO)C(=O)N1CCC[C@H]1C(=O)N[C@H](C(=O)N[C@@H](CC(N)=O)C(=O)N[C@H](C(=O)NCC(=O)N1CCC[C@H]1C(=O)N[C@@H](CC(N)=O)C(=O)N[C@H](C(=O)N[C@@H](Cc1ccc(O)cc1)C(N)=O)[C@@H](C)O)C(C)C)[C@@H](C)O
notes: Acylated analogue of human amylin; also called compound 56
